Patent US20070111260A1

What was measured:
[1] = molecular target: Human αvβ3 integrin (Chemicon, #CC1018), biotinylated (human) (UniProt P06756); assay: flow cytometry, 293A cells displaying the ScFvFc, αVβ3-biotin 1 ug/ml, APC-streptavidin
[2] = molecular target: Human αvβ3 integrin (Chemicon, #CC1018), biotinylated (human) (UniProt P06756); assay: flow cytometry, 293A cells displaying the ScFvFc, αVβ3-biotin 2.5 ug/ml, APC-streptavidin
[3] = molecular target: Human αvβ3 integrin (Chemicon, #CC1018), biotinylated (human) (UniProt P06756); assay: flow cytometry, 293A cells displaying the ScFvFc, αVβ3-biotin 10 ug/ml, APC-streptavidin
[4] = molecular target: Human αvβ3 integrin (Chemicon, #CC1018), biotinylated (human) (UniProt P06756); assay: flow cytometry, 293A cells displaying the ScFvFc, αVβ3-biotin 5 ug/ml, APC-streptavidin
[5] = molecular target: Human αvβ3 integrin (Chemicon, #CC1018), biotinylated (human) (UniProt P06756); assay: flow cytometry, 293A cells displaying the ScFvFc, αVβ3-biotin 0.5 ug/ml, APC-streptavidin

Human αvβ3 integrin (Chemicon, #CC1018), biotinylated (human), sequence (P06756 31-1048 limits assumed, chain 1 of 2): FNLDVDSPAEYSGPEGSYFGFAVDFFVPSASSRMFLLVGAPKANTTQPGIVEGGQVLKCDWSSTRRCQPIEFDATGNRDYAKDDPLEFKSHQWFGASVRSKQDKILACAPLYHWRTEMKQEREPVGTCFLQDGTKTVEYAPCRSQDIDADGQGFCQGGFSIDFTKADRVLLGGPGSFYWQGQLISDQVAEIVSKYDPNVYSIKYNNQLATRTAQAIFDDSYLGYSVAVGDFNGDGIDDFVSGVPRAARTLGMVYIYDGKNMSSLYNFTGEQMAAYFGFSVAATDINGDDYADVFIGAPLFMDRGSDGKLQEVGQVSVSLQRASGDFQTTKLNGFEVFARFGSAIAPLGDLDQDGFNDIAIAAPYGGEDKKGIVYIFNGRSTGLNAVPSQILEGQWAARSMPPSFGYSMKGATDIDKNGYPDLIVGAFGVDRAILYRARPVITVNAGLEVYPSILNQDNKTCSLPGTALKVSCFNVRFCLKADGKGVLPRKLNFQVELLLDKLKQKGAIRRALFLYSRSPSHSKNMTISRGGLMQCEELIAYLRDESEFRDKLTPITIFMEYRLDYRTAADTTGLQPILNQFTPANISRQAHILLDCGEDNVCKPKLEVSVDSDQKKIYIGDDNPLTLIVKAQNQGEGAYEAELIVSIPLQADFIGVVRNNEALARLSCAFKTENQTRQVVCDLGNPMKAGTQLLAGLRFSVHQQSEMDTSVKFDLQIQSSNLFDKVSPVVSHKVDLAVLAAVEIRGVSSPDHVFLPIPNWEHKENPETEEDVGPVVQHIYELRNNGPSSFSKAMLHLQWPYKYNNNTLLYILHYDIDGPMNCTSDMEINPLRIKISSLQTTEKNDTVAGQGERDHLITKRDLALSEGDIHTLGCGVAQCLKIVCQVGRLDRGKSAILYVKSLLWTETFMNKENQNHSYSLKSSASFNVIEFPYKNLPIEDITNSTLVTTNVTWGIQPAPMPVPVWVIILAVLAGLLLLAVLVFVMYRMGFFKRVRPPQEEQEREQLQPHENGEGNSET
Human αvβ3 integrin (Chemicon, #CC1018), biotinylated (human), sequence (P05106 27-788 limits assumed, chain 2 of 2, further chain): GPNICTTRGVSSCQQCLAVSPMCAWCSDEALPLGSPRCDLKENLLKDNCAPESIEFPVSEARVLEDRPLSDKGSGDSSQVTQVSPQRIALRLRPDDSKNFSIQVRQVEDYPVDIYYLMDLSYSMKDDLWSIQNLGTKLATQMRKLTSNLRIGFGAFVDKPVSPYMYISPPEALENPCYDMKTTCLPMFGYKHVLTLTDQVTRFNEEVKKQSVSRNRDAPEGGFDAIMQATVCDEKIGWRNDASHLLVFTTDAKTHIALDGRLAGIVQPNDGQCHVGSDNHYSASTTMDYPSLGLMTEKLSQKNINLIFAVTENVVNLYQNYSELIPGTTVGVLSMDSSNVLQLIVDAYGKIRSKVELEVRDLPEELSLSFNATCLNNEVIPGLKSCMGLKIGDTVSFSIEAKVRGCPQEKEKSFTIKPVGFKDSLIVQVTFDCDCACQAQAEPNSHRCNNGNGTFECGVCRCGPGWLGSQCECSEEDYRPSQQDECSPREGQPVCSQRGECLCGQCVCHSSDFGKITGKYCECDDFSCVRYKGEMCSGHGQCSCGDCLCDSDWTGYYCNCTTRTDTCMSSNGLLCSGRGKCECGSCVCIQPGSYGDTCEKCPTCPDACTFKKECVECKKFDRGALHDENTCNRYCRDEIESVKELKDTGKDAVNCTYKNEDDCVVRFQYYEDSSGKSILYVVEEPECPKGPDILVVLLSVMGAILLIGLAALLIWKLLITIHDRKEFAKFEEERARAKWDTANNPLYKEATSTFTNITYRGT

Percentage of positively stained cell [1]: 83% | Percentage of positively stained cell [2]: 85% | Percentage of positively stained cell [3]: 90% | Percentage of positively stained cell [4]: 84% | Percentage of positively stained cell [5]: 81%
B1: Abegrin anti-αvβ3 integrin ScFvFc, displayed on 293A cells (scFv, INN chains, looked up, V domains shown)
VH: QVQLVESGGGVVQPGRSLRLSCAASGFTFSSYDMSWVRQAPGKGLEWVAKVSSGGGSTYYLDTVQGRFTISRDNSKNTLYLQMNSLRAEDTAVYYCARHLHGSFASWGQGTTVTVSS
VL: EIVLTQSPATLSLSPGERATLSCQASQSISNFLHWYQQRPGQAPRLLIRYRSQSISGIPARFSGSGSGTDFTLTISSLEPEDFAVYYCQQSGSWPLTFGGGTKVEIK
modifications: scFv-Fc displayed on 293A cell surface
